Measurements from patent US20180244743A1.

Experiments:
[1] = biological target: human insulin receptor, A isoform (human) (UniProt P06213); assay: SPA competition with [125I-A14Y]-human insulin, solubilised hIR-A, […] HSA (Ex 25)
[2] = biological target: human insulin receptor, A isoform (human) (UniProt P06213); assay: SPA competition with [125I-A14Y]-human insulin, membrane-associated hIR-A, 0.1% HSA (Ex 26)
[3] = biological target: human insulin receptor, A isoform (human) (UniProt P06213); assay: SPA competition with [125I-A14Y]-human insulin, solubilised hIR-A, 0% HSA (Ex 25)
[4] = biological target: human insulin receptor, B isoform (human) (UniProt P06213); assay: SPA competition with [125I-A14Y]-human insulin, membrane-associated hIR-B, 0.1% HSA (Ex 26)
[5] = biological target: human insulin-like growth factor 1 receptor (human) (UniProt P08069); assay: SPA competition with [125I-Tyr31]-human IGF-1, membrane-associated hIGF-1R, 0.1% HSA (Ex 26)

| Substance | relative binding affinity (% rel to HI) [1] | relative binding affinity (% rel to HI) [2] | relative binding affinity (% rel to HI) [3] | relative binding affinity (% rel to HI) [4] | relative binding affinity (% rel to HI) [5] |
| --- | --- | --- | --- | --- | --- |
| A8H, A21A, B3E, desB27, B29K(N(eps)tetradecanedioyl-4×gGlu), desB30 human insulin (ligand) | 135 % rel to HI | 88.5 % rel to HI | 253 % rel to HI | 124 % rel to HI | – |
| A8H, A21A, B3E, desB27, B29K(N(eps)tetradecanedioyl-gGlu-2×OEG), desB30 human insulin (ligand) | 82.3 % rel to HI | 83.7 % rel to HI | 225 % rel to HI | 81.9 % rel to HI | – |
| A8H, B3E, desB27, B29K(N(eps)tetradecanedioyl-gGlu-2×OEG), desB30 human insulin (ligand) | 70.5 % rel to HI | 84.1 % rel to HI | 172 % rel to HI | 82.1 % rel to HI | – |
| A14E, A21A, B3Q, desB27, B29K(N(eps)tetradecanedioyl-4×gGlu), desB30 human insulin (ligand) | 37.4 % rel to HI | 31 % rel to HI | 63.8 % rel to HI | 36.8 % rel to HI | – |
| A21A, B3E, desB27, B29K(N(eps)hexadecanedioyl-gGlu-2×OEG), desB30 human insulin (ligand) | 3.6 % rel to HI | 14.3 % rel to HI | – | 13.2 % rel to HI | 0.1 % rel to HI |
| A21A, B3E, desB27, B29K(N(eps)tetradecanedioyl-gGlu-2×OEG), desB30 human insulin (ligand) | 22.3 % rel to HI | 52.1 % rel to HI | 63.4 % rel to HI | 49.6 % rel to HI | – |
| A21A, B3Q, desB27, B29K(N(eps)tetradecanedioyl-gGlu-2×OEG), desB30 human insulin (ligand) | 32 % rel to HI | 63.8 % rel to HI | 87.7 % rel to HI | 48.8 % rel to HI | – |
| A21G, B3E, desB27, B29K(N(eps)tetradecanedioyl-gGlu-2×OEG), desB30 human insulin (ligand) | 9.2 % rel to HI | 28.9 % rel to HI | 23.8 % rel to HI | 29 % rel to HI | – |

The remaining lines, values ahead:

| relative binding affinity (% rel to HI) [1] | relative binding affinity (% rel to HI) [2] | relative binding affinity (% rel to HI) [3] | relative binding affinity (% rel to HI) [4] | relative binding affinity (% rel to HI) [5] | Substance |
| --- | --- | --- | --- | --- | --- |
| 42.4 % rel to HI | 89.6 % rel to HI | 100 % rel to HI | 90.2 % rel to HI | – | A8H, A21G, B3E, desB27, B29K(N(eps)tetradecanedioyl-gGlu-2×OEG), desB30 human insulin (ligand) |
| 45.5 % rel to HI | 61.3 % rel to HI | 103 % rel to HI | 67.9 % rel to HI | – | A8R, B3E, desB27, B29K(N(eps)tetradecanedioyl-gGlu-2×OEG), desB30 human insulin (ligand) |
| 6.2 % rel to HI | 14.2 % rel to HI | 69 % rel to HI | 15 % rel to HI | – | A21A, B3E, desB27, B29K(N(eps)hexadecanedioyl-4×gGlu), desB30 human insulin (ligand) |
| 32.3 % rel to HI | 40.5 % rel to HI | 70.5 % rel to HI | 42.3 % rel to HI | – | A21A, B3E, desB27, B29K(N(eps)tetradecanedioyl-4×gGlu), desB30 human insulin (ligand) |
| 8.2 % rel to HI | 14.1 % rel to HI | 99.5 % rel to HI | 15.4 % rel to HI | – | A21A, B3Q, desB27, B29K(N(eps)hexadecanedioyl-4×gGlu), desB30 human insulin (ligand) |
| 5.6 % rel to HI | 15.8 % rel to HI | 76.9 % rel to HI | 14.6 % rel to HI | – | A21A, B3Q, desB27, B29K(N(eps)hexadecanedioyl-gGlu-2×OEG), desB30 human insulin (ligand) |
| 42.4 % rel to HI | 49.4 % rel to HI | 104 % rel to HI | 62.9 % rel to HI | – | A21A, B3Q, desB27, B29K(N(eps)tetradecanedioyl-4×gGlu), desB30 human insulin (ligand) |
| – | – | – | – | 4.1 % rel to HI | B3Q, desB27, B29K(N(eps)tetradecanedioyl-4×gGlu), desB30 human insulin (from UniProt P01308 90-110) (ligand) |
